Experiment [1] has as its target T1, RSV postfusion F (postF), subtype A (respiratory syncytial virus subtype A, UniProt P03420 26-513).
T1 construct: also called Postfusion subtype A; F deltaFP
Put plainly: BLI, IgG. Background: In BLI a coated tip is dipped into the sample, and binding shifts an interference pattern.

Experiment [2] addresses T2, RSV postfusion F (postF), subtype B (respiratory syncytial virus subtype B).
T2 construct: also called Postfusion subtype B
Put plainly: BLI, IgG.

Experiment [3] concerns the target T3, RSV prefusion F (preF), subtype B (respiratory syncytial virus subtype B).
T3 construct: also called Prefusion subtype B
Put plainly: BLI, IgG.

Experiment [4] has as its target RSV F on RSV subtype B virus (mKate-RSV B 18537) (respiratory syncytial virus B 18537, UniProt P13843 26-574). Put plainly: cell-based or functional assay.

We go through 13 molecules from patent publication US20260258115A1 (MAPP BIOPHARMACEUTICAL, published 2026).

B1: ADI-25497 (antibody, V domains shown)
VH: EVQLLESGGGLVQPGGSLRLSCAASGFTFSSYWMSWVRQAPGKGLEWVANIKQDGSEKYYVDSVKGRFTISRDNAKNSLYLQMNSLRAEDTAVYYCARDGLLQYDFWSGYYDYWGQGTLVTVSS
VL: EIVLTQSPSSLSASVGDRVTITCRASQGISSWLAWYQQKPEKAPKSLIYAASSLQSGVPSRFSGSGSGTDFTLTISSLQPEDFATYYCQQYNSYPFTFGPGTKVDIK
notes: full-length IgG
By Kd is commonly meant the equilibrium constant for the complex coming apart. Lower therefore signals higher affinity. With B1, the Kd turned out to be 18.4 nM in experiment [1], 14.8 nM in experiment [2] and 14.1 nM in experiment [3].

B2: ADI-14341 (antibody, V domains shown)
VH: QVQLVQSGGGLVQPGGSLRLSCAGSGFTFSDYEMNWVRQAPGKGLEWLSYISSSGSIIYYADSVKGRFTISRDNAKNSLYLQMNSLRAEDTGLYYCARANHRHYYGMDVWGQGTTVTVSS
VL: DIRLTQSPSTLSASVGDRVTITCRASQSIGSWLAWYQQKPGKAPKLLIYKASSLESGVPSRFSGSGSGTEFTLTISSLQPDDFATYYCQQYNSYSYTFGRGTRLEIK
notes: full-length IgG; also called Ab 9
For the molecule B2, the Kd in experiment [1] came to 0.713 nM; in experiment [2] it was 0.612 nM. The “Neut IC50 subtype B” value in experiment [4] was found to be 17.5 µg/mL.

B3: ADI-14358 (antibody, V domains shown)
VH: QVQLVQSGGGLVKPGGSLRLSCVASGFTFSDYYMTWIRQAPGKGLEWVSYISGSSAYTIYADSVKGRFTISRDNAKNSLYLQMNGLRAEDTAVYYCARVSWVRSLDSWGQGTLVTVSS
VL: QSALTQPASVSGSPGQSITISCTGSTSDVGLYNYVSWYQLHPGKAPKLIIYDVRHRPSGVSDRFSASKSGNTASLTISGLQAEDEADYYCCSYTSSSTYVFGSGTQLTVL
notes: full-length IgG; also called Ab 26
Consider B3, for which the figures for the Kd in experiment [1], in experiment [2] and in experiment [3] were 0.656 nM, 27.5 nM and 60.3 nM, respectively.

B4: ADI-14352 (antibody, V domains shown)
VH: EVQLLETGPGLVKPSQTLSLICAVSGGSISSGGYSWSWIRQPPGKGLEWVGYISYSGSTYYNPSLKSRVTISVDTSKNQFSLKLNSVTAADTAVYFCARVDGIYSSGMRFDYWGQGTLVTVSS
VL: DIQLTQSPGTLSLSPGERATLSCRASQSVSSYYLAWYQQKPGQAPRLLIYGTSSRATGIPDRFSGSGSGTDFTLTISRLEPEDFAVYYCQQYGRSPLFGQGTRLEIK
notes: full-length IgG; also called Ab 20
Take B4: the Kd in experiment [1] is 0.448 nM; in experiment [2], 0.383 nM; in experiment [3] it was 5.54 nM.

B5: ADI-14361 (antibody, V domains shown)
VH: EVQLLESGGGFVQPGGSLRLSCAASGFTFSSYAVNWVRQAPGKGLEWVSLISGSGRTDYTDSVKGRFTISRDNAKNTLFLQMNSLRVEDTAVYYCAKSWGSSGYGYLDYWGQGTLVTVSS
VL: QSGLTQPPSVSGAPGQRVTISCTGSSSNIGPGTDVHWYQHFPGTAPKLLIFGNSNRPSGVPDRFSGSKSGTSASLAITGLQAEDEAYYYCQSYDRTLSASVFGGGTKLTVL
notes: full-length IgG; also called Ab 29
With B5, the Kd was determined as 0.437 nM in experiment [1], 0.293 nM in experiment [2] and 52.8 nM in experiment [3].

B6: ADI-14354 (antibody, V domains shown)
VH: QVQLVQSGAEVKKPGSSAKVSCKASGGTFSSYTISWVRQAPGQGLEWMGRIIPFLGIANYAQKFQGRVTFTADKSTSTVYMDLSRLRSEDTALYYCAREPMYYGGDSYAFDVWGQGTTVTVSS
VL: QSVLTQPASMSGSPGHSITISCTGTSSDVGAYNYVSWYQQHPGKAPKLMIYDVSNRPSGVSSRFSGSKSGNTASLTISGLQPEDEADYYCSSFTTSSTRVFGTGTKLTVL
notes: full-length IgG; also called Ab 22
As for B6, the dissociation constant Kd in experiment [1] was found to be 1.04 nM; in experiment [2], 6.63 nM; in experiment [3] it was 25.3 nM.

B7: ADI-14351 (antibody, V domains shown)
VH: EVQLLESGGGLVQPGGSLRLSCSASGFTFSTYWMHWVRQAPGKGLVWVSRINGDGNDRNYADSVKGRFTISRDNAKNTVYLQMNSLRAEDTAVYYCARGGATGDFYFGMDVWGQGTTVTVSS
VL: SYELTQPPSVSVAPGKTAKITCGGNNIGTKSVHWYQQKPGQAPVLVIYYDTDRPSGIPERFSGSNSGNTATLTISRVEAGDEADYYCQVWDSSNSDHVGVFGGGTQLTVL
notes: full-length IgG; also called Ab 19
Take B7: the Kd is 0.361 nM in experiment [1], 0.215 nM in experiment [2] and 0.789 nM in experiment [3].

B8: ADI-14383 (antibody, V domains shown)
VH: QITLKESGPTLVKPTQTLTLTCTFSGFSLSTSGVGVGWIRQPPGKALEWLALIYWDEDKRYSPSLKTRLTITKDTSRNQVKLTMTNMDPVDTATYYCAHQYYDILTGYPSPGAFDIWGQGTTVTVSS
VL: QPVLTQPASVSGSPGQSITISCTGTSSDVVSYNLVSWFQQHPGKAPKLMIYEVTRRPSGVSNRFSGSKSGNTASLTISGLQAEDEADYYCCAYTGTPVVFGGGTKLTVL
notes: full-length IgG; also called Ab 51
Consider B8, for which the results for the Kd in experiment [1], in experiment [2] and in experiment [3] were 0.434 nM, 0.251 nM and 1.75 nM, respectively.

B9: ADI-14360 (antibody, V domains shown)
VH: QVQLVQSGAEVKKPGASVKVSCKASGYTFTTYSMHWVRQAPGQRLEWMGWINAGNGNTKYSQKFQGRVTITRDTSASTAYMELSSLRSEDTAVYYCARDGVGGAYYYGEMDVWGQGTTVTVSS
VL: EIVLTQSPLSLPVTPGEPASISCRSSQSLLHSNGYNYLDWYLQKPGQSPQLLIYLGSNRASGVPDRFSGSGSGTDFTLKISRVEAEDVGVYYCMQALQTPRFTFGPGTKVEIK
notes: full-length IgG; also called Ab 28
Take B9: the Kd in experiment [1] was 5.88 nM; in experiment [2], 9.03 nM; in experiment [3], 26.8 nM.

B10: ADI-14375 (antibody, V domains shown)
VH: EVQLVESGGGLVQPGGSLRLSCAVSGFTFSNYAVSWVRQAPGKGLEWVSGISGSGGTTYYVDSVKGRFTVSRDNSKNTLFLQLNSLKAEDTAVYYCAKDWGYSGGRPYFDYWGQGTLVTVSS
VL: QSVLTQPPSVSGAPGQRVTISCTASSSNIGPIYDVHWYQQLPGTGPKLLIYGNNNRPSGVPDRFSGSKSGTSASLAITGLQAEDEADYYCQSYDTSLSVVFGGGTKLTVL
notes: full-length IgG; also called Ab 43
As to B10, the Kd in experiment [1] turned out to be 0.477 nM; in experiment [2] it was 3.31 nM; in experiment [3], 3.21 nM.

B11: ADI-14371 (antibody, V domains shown)
VH: EVQLVESGGGLVQPGGSLRLSCAASGFTFSNYAMTWVRQAPGKGLEWLSSISGSGGSTYYADSVKGRFTISRDNSRNTLYVQMNSLRVEDTAFYYCAKAFYEYGAGSPGDYWGQGTLVTVSS
VL: DIQLTQSPSSLSASVGDRVTITCRASQSIGTNLNWYQQKPGKAPKFLIYAASSLQRGVPSRFSGSGSGSEFTLTISSLQPEDFATYYCQQSYSTLPITFGQGTKLEIK
notes: full-length IgG; also called Ab 39
Consider B11, for which the Kd in experiment [1] amounted to 1.23 nM; in experiment [2] it was 1.07 nM; in experiment [3], 8.43 nM.

B12: ADI-25547 (antibody, V domains shown)
VH: EVQLLESGGGLIQPGGSLRLSCAASGFTVSSNYMSWVRQAPGKGLEWVSVIYSGGSTYYADSVKGRFTISRDNSKNTLYLQMNSLRAEDTAVYYCARGGIADAFDIWGQGTMVTVSS
VL: ETTLTQSPSSVSASVGDRVTITCRASQGISSWLAWYQQKPGKAPKLLIYAASSLQSGVPSRFSGSGSGTDFTLTISSLQPEDFATYYCQQANSFPRTFGQGTKLEIK
notes: full-length IgG
Take B12: the dissociation constant Kd in experiment [1] is 21.5 nM; in experiment [2] it was 23.1 nM; in experiment [3], 20.3 nM.

B13: ADI-19480 (antibody, V domains shown)
VH: EVQLVESGGGLVKPGGSLRLSCAASGFTFSAYSMNWVRQAPGKGLEWVSSISSTTNYISYADSVKGRFTISRDNAKNSLYLQMNSLRAEDTAVYYCARDPKYYGLGTYYKDDYWGQGTLVTVSS
VL: NFMLTQPHSVSESPGKTVTISCTRSGGSIASNYVQWYQQRPGSSPTTVIYEDNQRPSGVPDRFSGSIDSSFNSASLTVSGLKTEDEADYYCQSFDNNNRWVFGGGTKLTVL
notes: full-length IgG
Consider B13, for which the Kd came to 0.129 nM in experiment [1], 0.119 nM in experiment [2] and 0.383 nM in experiment [3]. The “Neut IC50 subtype B” value in experiment [4] amounted to 6.25 µg/mL.
